Reference: the DeepSol protein solubility set

test: soluble on expression in E. coli; label from the status in PepcDB or PDB records

Row | Sequence | soluble on expression in E. coli
1 | MGSDKIHHHHHHMSNPAYTAMWEKLNLDIPAHDGLLEVLGKFYGDIYMSQQGRLQGMEYLDFVLSEVHGLRIQELQQAKEQGKKIIGTFCVFVPEEITLAAGAVHVGLCSGADAGTEEAEKLVPRNTCALIKSFIGFKLARLCPFTESCDLVVGETTCDGKKKAYEAFAEHVPMHVMEVPNTKSDAARDLFKTEVLRYMQALQQLTGTAITPQALASGIRAVNAKRRALQRLSALRSADPAPISGRDALLINQVSFYDDPERFTHSINALCDQMEERIARKEGIAPAGTPRLLLSGCPMAVPNWKLPYIMESSGAVIVGEESCIGTRNTRDLVDESQETLDGMIDALVDRYMKIDCACFTPNTERLHNVTAMAQELKADGIVHYALKFCQPYAHEAFKIEKAAREKDIPVLSVETDYSMEDAEQLKTRVEAFVEMVRG | not soluble
2 | MHDISSLTTRTKTLPPLRVGVGGPVGSGKTTLLEMVCKAMYPQFDLIAITNDIYTKEDQRLLTLSGALPPERILGVETGGCPHTAIREDASINLIAIDQMLEQFPDADIVFVESGGDNLAATFSPELSDLTLYIIDVASGEKIPRKGGPGITKSDLFIINKTDLAPYVGADLAVMEADTRRMRGDKPFVMCNLKTGDGLDQVIAFLKTEGLFRGLEHHHHHH | soluble
3 | MKLQTTYPSNNYPIYVEHGAIKYIGTYLNQFDQSFLLIDEYVNQYFANKFDDILSYENVHKVIIPAGEKTKTFEQYQETLEYILSHHVTRNTAIIAVGGGATGDFAGFVAATLLRGVHFIQVPTTILAHDSSVGGKVGINSKQGKNLIGAFYRPTAVIYDLDFLKTLPFKQILSGYAEVYKHALLNGESATQDIEQHFKDREILQSLNGMDKYIAKGIETKLDIVVADEKEQGVRKFLNLGHTFGHAVEYYHKIPHGHAVMVGIIYQFIVANALFDSKHDISHYIQYLIQLGYPLDMITDLDFETLYQYMLSDKKNDKQGVQMVLMRQFGDIVVQHVDQLTLQHACEQLKTYFK | soluble
4 | MESLKSNLFLTREAYLEAFETIMTPLKTAILTSEKPGVNFGSSGAVYDQQHAEMEALIRPLWGIGPYWVTCKDDVLRDAYVEKLIAGTDPSSPDYWGVIVDYDQYIVEAAALSLTLLLHKTYFWSCFSEKQQENIMVWLNKALGCKIPKNNWTFFKVLIRLALEGCGQVINQAELEEELALIECMYLGDGWYMDGKTTQRDYYISFAFHYYSLIYVKFMRERDPIRAKRFTERAVMFAQDYLYYFDEEGEALPYGRSQTYRFAQGAFFAALIFAEVEALPWGQIKTLLAKHLHCWMQQAIFTYDGRLSIGYHYENLVMAEGYNAPGSPYWAFKTFLLLAVDQDHPFWRAEPLAIKREEKRLIEKGNMLLIHPKMKTHVLGYPAGLWLENQAHAAAKYSKFVYSSRFGFSVPKAGARYEEGAFDNVLAVSRDGEYFRVKGKVHDFYLTEEQVYYKWLPFQEVEIETTIYPFGEWHVRVHEIVTSVPLKVREGGFSLPLLGKFSEKELGKEWARVDSGELCSQIVAIEGYDHAGILQPEPNTSLFFPRTSLPYLQKELPIGTHRLICLVGGVTREE | soluble
5 | MGSDKIHHHHHHMQDSMYSALFGALTNEHRLNNIANNLANVNTTGYKRDVLAFKDTFLSFAHDEVMEPIPNVRSKKMFPEPIHIAKPRIALAKTDFSQGSLKLTGGTLDMAVHGDGFFKVRTPDGEFYTRNGNFRQTSDGQLVTQQGWPVLGAGGDIQIPPRANLTVAENGTIYADGEEIGQVQVVTLDNLDALEKQGSNLFRLREGAEAQEVPVENPVVLQGFLETANVEVVTEMVNMIEANRQFEAYQKIMQTTDAVDKMATTQVGRGRA | not soluble
6 | MGSTSSLYAAIDLGSNSFHMLVVREVAGSIQTLTRIKRKVRLAAGLNSENALSNEAMERGWQCLRLFAERLQDIPPSQIRVVATATLRLAVNAGDFIAKAQEILGCPVQVISGEEEARLIYQGVAHTTGGADQRLVVDIGGASTELVTGTGAQTTSLFSLSMGCVTWLERYFADRNLGQENFDAAEKAAREVLRPVADELRYHGWKVCVGASGTVQALQEIMMAQGMDERITLEKLQQLKQRAIHCGRLEELEIDGLTLERALVFPSGLAILIAIFTELNIQCMTLAGGALREGLVYGMLHLAVEQDIRSRTLRNIQRRFMIDIDQAQRVAKVAANFFDQVENEWHLEAISRDLLISACQLHEIGLSVDFKQAPQHAAYLVRNLDLPGFTPAQKKLLATLLLNQTNPVDLSSLHQQNAVPPRVAEQLCRLLRLAIIFASRRRDDLVPEMTLQANHELLTLTLPQGWLTQHPLGKEIIAQESQWQSYVHWPLEVH | soluble
